Experimental data as given in paper PMC3040777, “Purification and Characterization of the RecA Protein from Neisseria gonorrhoeae”.

Key:
SSBEc = SSBEc (Escherichia coli, UniProt P0AGE0 1-178); assay: EMSA; 50 uM nucleotides ssDNA; SSB 10 nM-10 uM; fully bound at 1/10 SSB; affinity similar to SSBNg; EMSA: 20 mM Tris-Cl 39% cation (pH 8.3), 0.5 M NaCl, 1 mM EDTA, 50% glycerol, 10 min at 37 C; 4% native PAGE at 4 C; conditions: protein: recombinant; chain copies: 4; label: 5'-6FAM; single strand
SSBNg = target: T1, SSBNg (Neisseria gonorrhoeae, UniProt Q5F7Y0 1-174); assay: EMSA; 50 uM nucleotides ssDNA; SSB 10 nM-10 uM; fully bound at 1/10 SSB; affinity similar to SSBEc; EMSA: 20 mM Tris-Cl 39% cation (pH 8.3), 0.5 M NaCl, 1 mM EDTA, 50% glycerol, 10 min at 37 C; 4% native PAGE at 4 C; conditions: protein: recombinant; tags: none stated (pET21a, native purification); chain copies: 4; label: 5'-6FAM; single strand
T1 sequence: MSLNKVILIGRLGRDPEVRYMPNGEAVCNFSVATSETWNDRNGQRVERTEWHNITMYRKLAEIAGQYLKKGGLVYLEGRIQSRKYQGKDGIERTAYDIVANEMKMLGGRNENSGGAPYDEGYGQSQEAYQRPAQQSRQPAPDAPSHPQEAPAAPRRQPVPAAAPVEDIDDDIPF

SSBEc, sequence (P0AGE0 whole entry): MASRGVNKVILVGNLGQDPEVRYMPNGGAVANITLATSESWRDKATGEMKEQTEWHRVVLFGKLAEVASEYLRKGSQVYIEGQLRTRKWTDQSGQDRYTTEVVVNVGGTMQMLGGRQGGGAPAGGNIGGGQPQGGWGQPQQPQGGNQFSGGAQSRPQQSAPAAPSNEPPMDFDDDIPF

B1: OCN324 50-mer (ssDNA)
DNA: TGCCTCGCGGTAGCTCTTCTCGGAGCGCACGATTCGCACTGCTGATGTTC
B1: binds (SSBEc); binds (SSBNg).
